PMC3509953 (Journal of molecular biology, 2012)
Where a chain is given by its changes, count along the chain named. Names may count otherwise.

B1: Protein related to DAN and Cerberus (PRDC), wild type, bacterially produced (natural protein, mouse, UniProt O88273 22-168, looked up)
chain: RKNRPAGAIPSPYKDGSSNNSERWHHQIKEVLASSQEALVVTERKYLKSDWCKTQPLRQTVSEEGCRSRTILNRFCYGQCNSFYIPRHVKKEEDSFQSCAFCKPQRVTSVIVELECPGLDPPFRIKKIQKVKHCRCMSVNLSDSDKQ
modifications: a single glutathione (by mass spectrometry; residue not stated)
B2: PRDC with the unpaired cysteine mutated to serine (C120S), bacterially produced (natural protein, mouse, UniProt O88273 22-168, looked up)
chain: B1 chain with C99S
B3: BMP2 (ligand, UniProt P12643 283-396, looked up)
chain: QAKHKQRKRLKSSCKRHPLYVDFSDVGWNDWIVAPPGYHAFYCHGECPFPLADHLNSTNHAIVQTLVNSVNSKIPKACCVPTELSAISMLYLDENEKVVLKNYQDMVVEGCGCR
B4: BMP4 (ligand, UniProt P12644 293-408, looked up)
chain: SPKHHSQRARKKNKNCRRHSLYVDFSDVGWNDWIVAPPGYQAFYCHGDCPFPLADHLNSTNHAIVQTLVNSVNSSIPKACCVPTELSAISMLYLDEYDKVVLKNYQEMVVEGCGCR
B5: BMP7 (ligand, UniProt P18075 293-431, looked up)
chain: STGSKQRSQNRSKTPKNQEALRMANVAENSSSDQRQACKKHELYVSFRDLGWQDWIIAPEGYAAYYCEGECAFPLNSYMNATNHAIVQTLVHFINPETVPKPCCAPTQLNAISVLYFDDSSNVILKKYRNMVVRACGCH
B6: DAN (differential screening selected gene abberative in neuroblastoma) (natural protein, human)
chain: AAPPPINKLALFPDKSAWCEAKNITQIVGHSGCEAKSIQNRACLGQCFSYSVPNTFPQSTESLVHCDSCMPAQSMWEIVTLECPGHEEVPRVDKLVEKILHCSCQACGKEPSHEGLSVYVQGEDGPGSQPGTHPHPHPHPHPGGQTPEPEDPPGAPHTEEEGAEDLEVLFQ
B7: activin A (ligand, UniProt P08476 311-426, looked up)
chain: GLECDGKVNICCKKQFFVSFKDIGWNDWIIAPSGYHANYCEGECPSHIAGTSGSSLSFHSTVINHYRMRGHSPFANLKSCCVPTKLRPMSMLYYDDGQNIIKKDIQNMIVEECGCS

Key:
SEC = biological target: the molecule itself; experiment: SEC
AUC = biological target: the molecule itself; experiment: AUC
[1] = biological target: B2; experiment: SPR
cross-linking = biological target: the molecule itself; experiment: cross-linking
[2] = biological target: the molecule itself; experiment: MALDI-TOF mass spectrometry

Binder: B1
stoichiometry N (SEC): 2

Binder: B2
stoichiometry N (AUC): 2

Binder: B3
Kd [1]: 0.0571 ± 0.0078 µM

Binder: B4
Kd [1]: 0.0707 ± 0.0026 µM

Binder: B5
Kd [1]: 0.0866 ± 0.0037 µM

Binder: B6
stoichiometry N (cross-linking): 2

Binder: B7
stoichiometry N [2]: 2
